Assay results from patent US5663141A, “Hirudin/polyalkylene glycol conjugates and hirudin muteins” (BASF Aktiengesellschaft, priority 1989, dated 1997).

Columns and labels:
thrombin [1] = biological target: thrombin (Homo sapiens, UniProt P00734); assay: thrombin inhibition assay with the chromogenic substrate S 2238 (specific activity); format: biochemical
From the text: The specific activity of the PEG1 -hirudin conjugate purified from the coupling mixture was 8,000 U/mg of protein (determined by the thrombin inhibition assay with the chromogenic substrate S 2238 (Kabi), (FEBS-Lett. (1983), 164, 307), protein determined by BCA assay with serum albumin as standard (Pierce)), and the molecular weight of the conjugate was 15,000 Da (Superose®-12 chromatography, Pharmacia).

[2] = Pharmacokinetics of PEG2-hirudin conjugates in dogs (plasma anti-factor IIa activity); format: in vivo; settings: beagle dogs, 4,000 U/kg intravenous or subcutaneous, compared with underivatized hirudin, FIGS. 3 and 4
Experimental: 2 groups of dogs (beagle dogs, 4 animals in each group) each received intravenous or subcutaneous administration of 4,000 U/kg PEG2 -hirudin (0.2 ml vol). 2 ml samples of blood in 0.1M Na citrate were taken 0.25, 0.5, 1, 2, 3, 4, 6, 8, 24, 32, 48, 56, 72 and 80 h after the injection. Subsequently platelet-poor plasma was prepared by centrifugation at 4,000 g for 10 minutes, and the plasma PEG-hirudin concentration was determined by the thrombin inhibition in the chromogenic substrate assay with S 2238 (Kabi). For comparison, the same dogs were treated in another experiment with hirudin. The time course of the plasma hirudin concentration was subsequently determined as described above.
FIGS. 3 and 4 depict the time course of the anti-factor IIa activities after intravenous and subcutaneous administration of PEG2 -hirudin and underivatized hirudin.

[3] = in vivo; cited from earlier work
thrombin [4] = biological target: thrombin
[5] = purified conjugate, protein determined by BCA assay with serum albumin as standard
[6] = underivatized protein used as starting material

PEG1-hirudin: desulfatohirudin carrying one methoxy-polyethylene glycol(8000) residue, Example 9
specific activity (thrombin [1]; [5]): 8,000 U/mg of protein

desulfatohirudin: hirudin prepared by genetic engineering, sulfate residue on Tyr 63 absent; sequences 1A + 2A + 3A [reference compound]
specific activity (thrombin [1]; [6]): 8,000 ATU/mg

PEG2-hirudin: desulfatohirudin carrying two methoxypolyethylene glycol (8,000 Da) residues, Example 10
specific activity (thrombin [1]; [5]): 6,200 U/mg of protein | bioavailability [2]: better | duration of the biological action (anti-factor IIa activity time course) [2]: distinctly prolonged

hirudin: naturally occurring anticoagulant protein of 65 amino acids from the leech Hirudo medicinalis, thrombin inhibitor
half-life in the blood [3]: about 50 min

desulfatohirudin (from UniProt P01050)
specific activity (thrombin [4]): 8000 ATU/mg

B1: HL 14B: hirudin mutein, Asp33→Lys33, Lys36→Arg36, Lys47→Arg47 (protein)
chain: VVYTDCTESGQNLCLCEGSNVCGQGNKCILGSKGERNQCVTGEGTPRPQSHNDGDFEEIPEEYLQ
specific activity (thrombin [1]; [6]): 8,900 ATU/mg

B2: PEG2-HL 14B: hirudin mutein HL 14B carrying two methoxy-polyethylene glycol (8,000 Da) residues, Example 11 (conjugate)
chain: VVYTDCTESGQNLCLCEGSNVCGQGNKCILGSKGERNQCVTGEGTPRPQSHNDGDFEEIPEEYLQ
modifications: ends and bridges not checked; also: two methoxy-PEG (8,000 Da) on lysine side-chain amino groups, positions not given here
specific activity (thrombin [1]; [5]): 8,300 U/mg of protein
